We go through one substance from patent EP2045266A1, “Methods for treating and diagnosing a cancer secreting cath-D or Alzheimer's disease” (priority 2007, dated 2009).

This assay concerns the target M6P receptors. Put plainly: cell-based or functional assay.

pro-cath-D (52 kDa precursor of human cathepsin D), P07339 21-412 (enzyme), sequence (P07339 21-412 limits assumed): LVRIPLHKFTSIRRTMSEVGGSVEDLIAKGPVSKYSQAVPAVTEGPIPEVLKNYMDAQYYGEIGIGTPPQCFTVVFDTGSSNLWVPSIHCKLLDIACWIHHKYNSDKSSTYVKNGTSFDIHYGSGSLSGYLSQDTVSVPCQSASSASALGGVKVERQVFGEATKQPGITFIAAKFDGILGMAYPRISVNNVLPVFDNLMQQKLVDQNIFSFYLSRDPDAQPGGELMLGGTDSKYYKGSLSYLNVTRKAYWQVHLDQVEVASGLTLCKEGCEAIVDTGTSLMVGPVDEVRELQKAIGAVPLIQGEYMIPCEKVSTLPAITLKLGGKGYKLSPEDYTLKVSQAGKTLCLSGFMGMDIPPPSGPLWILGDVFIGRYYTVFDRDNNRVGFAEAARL

“pro-cath-D (52 kDa precursor of human cathepsin D), P07339 21-412 (enzyme)” had a decrease in internalization of labelled pro-cath-D by HMF fibroblasts over 3 h with excess soluble M6P (10 mM) of 82%.
